The record followed here is paper PMC5109294, “NANOG reprograms prostate cancer cells to castration resistance via dynamically repressing and engaging the AR/FOXA1 signaling axis”.

In the series the target is T1, FOXA1 (Homo sapiens, UniProt P55317 1-472).
T1 sequence: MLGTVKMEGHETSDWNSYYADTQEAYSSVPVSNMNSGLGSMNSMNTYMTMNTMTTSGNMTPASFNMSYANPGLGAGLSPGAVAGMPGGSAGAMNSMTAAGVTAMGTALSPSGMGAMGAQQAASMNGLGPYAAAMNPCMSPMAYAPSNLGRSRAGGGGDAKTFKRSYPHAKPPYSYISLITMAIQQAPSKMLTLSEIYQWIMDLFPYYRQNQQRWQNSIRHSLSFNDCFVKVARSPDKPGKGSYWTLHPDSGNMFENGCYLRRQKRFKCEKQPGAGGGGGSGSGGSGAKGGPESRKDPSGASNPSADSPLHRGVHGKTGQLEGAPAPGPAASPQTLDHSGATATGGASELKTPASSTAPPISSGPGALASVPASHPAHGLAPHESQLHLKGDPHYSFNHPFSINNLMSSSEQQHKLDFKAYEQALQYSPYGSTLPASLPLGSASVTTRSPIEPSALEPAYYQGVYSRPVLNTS
Kind of series: EMSA; 100 ng protein; competed by 300x unlabeled probe; weaker than NP8 at 1:1; LightShift Chemiluminescent EMSA kit; probe annealed in 20 mM Tris-HCl pH 7.5, 150 mM NaCl; 4-20% native gel, 0.5X TBE; binding buffer and temperature not stated. As to conditions: protein: recombinant; tags: GST (pGEX-6p-1); label: biotin (both strands); blunt; some single-stranded primer remains after annealing. For orientation: In EMSA bound probe runs differently from free probe, usually more slowly.

B1: FOXA1 motif probe, UBE2C gene promoter (dsDNA)
DNA 1: CTTAGTGTTTATTTCAAGCT
DNA 2: AGCTTGAAATAAACACTAAG
In the case of B1, the binding result is on record as “binds”.
